Source: ChEMBL document CHEMBL3526099, “Metabolism of triethylenetetramine and 1,12-diamino-3,6,9-triazadodecane by the spermidine/spermine-N(1)-acetyltransferase and thialysine acetyltransferase” (Drug Metab Dispos, 2013)

Assays:
NCCCNCCNCCNCCN = test: Drug metabolism assessed as mouse SSAT1-mediated metabolite formation; assay type: ADME
NCCNCCNCCN = test: not read

Diamine acetyltransferase 1 (Mus musculus), sequence (chain, as listed by the source): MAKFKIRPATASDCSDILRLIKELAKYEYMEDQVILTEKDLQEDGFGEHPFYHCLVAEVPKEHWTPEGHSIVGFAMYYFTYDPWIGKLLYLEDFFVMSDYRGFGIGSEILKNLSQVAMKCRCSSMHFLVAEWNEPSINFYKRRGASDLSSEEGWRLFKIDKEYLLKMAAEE
Diamine acetyltransferase 1 (Homo sapiens), sequence (chain, as listed by the source): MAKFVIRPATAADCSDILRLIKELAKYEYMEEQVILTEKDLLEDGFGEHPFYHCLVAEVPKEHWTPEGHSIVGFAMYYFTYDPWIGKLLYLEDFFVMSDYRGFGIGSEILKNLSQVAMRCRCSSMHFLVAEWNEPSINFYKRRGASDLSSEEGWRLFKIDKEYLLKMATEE

Substance | Km (NCCCNCCNCCNCCN) | Vmax (NCCCNCCNCCNCCN) | Km (NCCNCCNCCN) | Vmax (NCCNCCNCCN)
Diamine acetyltransferase 1 (Mus musculus) | 106 µM | 1.17 µmol/min/mg |  | 
Diamine acetyltransferase 1 (Homo sapiens) |  |  | 83 µM | 0.9 µmol/min/mg
